Values quoted from earlier work, collected in paper PMC5576036.

How the values were obtained:
[1] = biological target: CD25 (IL-2Rα) (Homo sapiens) (UniProt P01589)
[2] = biological target: intermediate-affinity IL-2R (CD122/CD132) (Homo sapiens) (UniProt P14784)
[3] = biological target: CD122 (IL-2Rβ) (Homo sapiens) (UniProt P14784)

Chain of UniProt P01589 (P01589 22-240): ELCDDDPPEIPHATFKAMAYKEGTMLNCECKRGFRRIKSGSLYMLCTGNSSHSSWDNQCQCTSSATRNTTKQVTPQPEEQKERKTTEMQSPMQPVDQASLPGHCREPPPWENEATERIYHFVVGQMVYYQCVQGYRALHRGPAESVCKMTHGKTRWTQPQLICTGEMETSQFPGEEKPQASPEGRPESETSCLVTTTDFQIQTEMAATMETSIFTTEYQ

Question: What does the source list for IL-2 (from UniProt P60568)?
Answer: Kd [1]: 10 nM; Kd [2]: 1 nM; Kd [3]: 100 nM
